Experimental data published in US20120277286A1, “COMPOSITIONS AND METHODS FOR THE TREATMENT OR PREVENTION OF MITOCHONDRIAL DISEASES” (The Government of the USA, as represented by the Secretary, …, priority 2009, published 2012).

Assays:
HeLa cells = test: Parkin-induced mitophagy, loss of mitochondria by immunocytochemistry; format: cell-based; details: YFP-Parkin HeLa cells, 10 μM CCCP+10 mM 3-methyladenine or +100 nM Bafilomycin, 24 hours
Description: Cultured cells seeded in borosilicate chamber slides (Thermo Fisher Scientific) were transfected or cotransfected with YFP-Parkin, ECFP-Parkin, mCherry-Parkin, DsRed-Mito (Clontech Laboratories, Inc.), pcDNA3.1 (Invitrogen), vMIA, and/or Drp1K38A constructs using Fugene 6 (Roche). Parkin-myc was a gift from M. Cookson (National Institutes of Health, Bethesda, Md.). Cells were fixed 12-24 hours after transfection with 4% paraformaldehyde in PBS. Cells were stained with following primary antibodies: mouse monoclonal cytochrome c (BD), rabbit polyclonal Tom20 (Santa Cruz Biotechnology, Inc.), mouse monoclonal Parkin PRK8 (Santa Cruz Biotechnology, Inc.), rabbit polyclonal PMP70 (Invitrogen), and/or mouse monoclonal TRAP1 (Abcam); and with the following secondary antibodies: mouse and/or rabbit Alexa 488, 594, and 633 (Invitrogen). For assessment of mitochondrial membrane potential, cells were pulsed with 50 nM Mito-Tracker red (Invitrogen) for 15 min, washed, and incubated for an additional 10 minutes before fixation or imaging. For assessment of cell metabolic potential, cell nuclei were stained with Hoechst 33342 (Invitrogen).
(§1) Confocal microscopy of fixed samples, scoring of Parkin recruitment and Parkininduced mitophagy, and live cell imaging were performed as described previously (Narendra (2008) J Cell Biol 183: 795-803). Experiments in Mfn1/2 null cells were performed as described previously with minor modifications.
as §1, with “Parkin-induced” for “Parkininduced”, “imageing” for “imaging”, “modifications described in the supplemental methods (Narendra (2008) J Cell Biol 183: 795-803).” for “modifications.”

PINK1 = PINK1 accumulation by fractionation and immunoblotting; format: cell-based; details: HeLa cells, mitochondrial membrane fraction; 10 μM CCCP or 1 μM valinomycin
From the text: (§2) For PINK1 experiments, cells were fractionated using the Mitochondria Isolation Kit (Pierce), according to manufacturer's specifications with slight modifications. To isolate integral membrane proteins, membrane fractions obtained as above were carbonate extracted with 0.1M Na2CO3 fresh cold buffer and membranes were pelleted, as described in the supplemental methods. For Parkin experiments, cells were fractionated as described previously, with minor modifications described in the supplemental methods (Narendra (2008) J Cell Biol 183: 795-803). The following primary antibodies were used: anti-Parkin (PRK8) monoclonal (Santa Cruz), anti-Tom20 polyclonal (Santa Cruz), anti-cytochrome c monoclonal (BD Biosciences), anti-PINK1 polyclonal (Novus Biologicals), anti-VDAC monoclonal (Calbiochem), anti-GAPDH polyclonal (Sigma-Aldrich), anti-Tubulin monoclonal (Sigma-Aldrich), anti-V5 monoclonal (Invitrogen), anti-GFP polyclonal (Invitrogen).
as §2, with “with slight modifications described in the supplemental methods. To isolate” for “with slight modifications. To isolate”, “minor modifications detailed in the” for “minor modifications described in the”, “supplemental methods (Narendra (2008) J Cell Biol 183: 795-803). The protease protection assay was performed as described previously (Chen (2005) J Biol Chem 280: 26185-26192). Cells were fixed and immunostained as described previously (Narendra (2008)” for “supplemental methods (Narendra (2008)”, “anti-GFP polyclonal (Invitrogen), anti-TIM23 monoclonal (BD Biosciences), and anti-Hsp60 monoclonal (Stressgen).” for “anti-GFP polyclonal (Invitrogen).”

[1] = tested on: PINK1+/+ or PINK1−/− MEFs; test: YFP-Parkin recruitment to mitochondria in MEFs; format: cell-based, mouse; details: 20 μM CCCP, 3 hours; for reconstitution of YFP-Parkin recruitment: PINK1−/− primary MEFs co-transfected with construct
From the text: HeLa YFP-Parkin, PINK1+/+ SV40 transformed MEFs cells, PINK1−/− SV40 transformed MEF, M17 neuroblastoma control shRNA, M17 neuroblastoma PINK1, and Mfn1/2−/− MEF cell lines have been described previously (Narendra (2008) J Cell Biol 183: 795-803). PINK1+/+ and PINK1−/− primary MEFs were isolated from embryos using a standard protocol (Gautier (2008) Proc Natl Acad Sci USA 105: 11364-11369). Parkin+/+ and Parkin−/− transformed MEFs were created by isolation of primary cells from embryos of B6.129S4-Park2tm1Shn/J mice (Jackson Labs), using a standard protocol (Gautier (2008) Proc Natl Acad Sci USA 105: 11364-11369), followed by retroviral transduction of SV40 (Applied Biological Materials, Inc.). YFP-Parkin, YFPParkin mutants, mCherry-Parkin, PINK1-YFP, PINK1 KD-YFP, PINK1 Δ1-110-YFP, and Opa3-PINK1 Δ1-110-YFP are in C1 or N1 Clontech vectors. PINK1WT-V5, PINK1 KD-V5, and PINK1 Δ1-156-V5 are in pDest40 vector (Invitrogen). PINK1 patient mutations are in pLenti-V5 vector (Invitrogen). PINK1-myc is in a pCMBTNT vector (Promega).
as §1
HeLa YFP-Parkin, E18 Rat cortical neurons, PINK1^+/+ SV40 transformed MEFs cells, PINK1^−/− SV40 transformed MEF, M17 neuroblastoma control shRNA, M17 neuroblastoma PINK1, Mfn1/2^−/− MEF, and Parl^−/− MEF cell lines have been described previously (Narendra (2008) J Cell Biol 183: 795-803). PINK1^+/+ and PINK1^−/− primary MEFs were isolated from embryos using a standard protocol (Gautier (2008) Proc Natl Acad Sci USA 105: 11364-11369). Parkin^+/+ and Parkin^−/− transformed MEFs were created by isolation of primary cells from embryos of B6.129S4-Park2^tm1Shn/J mice (Jackson Labs), using a standard protocol (Gautier (2008) Proc Natl Acad Sci USA 105: 11364-11369), followed by retroviral transduction of SV40 (Applied Biological Materials, Inc.). YFP-Parkin, YFP-Parkin mutants, mCherry-Parkin, PINK1-YFP, PINK1 KD-YFP, PINK1 Δ1-110-YFP, and Opa3-PINK1 Δ1-110-YFP are in C1 or N1 Clontech vectors. PINK1WT-V5, PINK1 KD-V5, and PINK1 Δ1-156-V5 are in pDest40 vector (Invitrogen). PINK1 patient mutations are in the pLenti-V5 vector (Invitrogen). PINK1-myc is in a pCMBTNT vector (Promega). The PARL shRNA construct targeting (5′ […] 3′) is in the pSuper-GFP vector. To make FRB-PINK1 (111-581)-YFP and Tom20 (1-33)-FKBP, PCR fragments containing PINK1 (111-581)-YFP and Tom20 (1-33) were cloned into the BamHI site of the pC4-RHE vector and the EcoRI and XbaI sites of pC4M-F2E vectors, respectively (ARIAD Pharmaceuticals). The rapamycin analogue AP21967 was obtained from ARIAD Pharmaceuticals. The PARL shRNA construct targeting (5′ […] 3′) is in the pSuper-GFP vector (OligoEngine).
as §1, with “Parkin-induced” for “Parkininduced”, “imageing” for “imaging”, “modifications described in the supplemental methods (Narendra (2008) J Cell Biol 183: 795-803).” for “modifications.”

Cn1cnc(N)c2ncnc1-2 [3-methyl adenine, reference compound]
effect on Parkin-induced mitophagy (HeLa cells): blocked

CC(C)[C@@H]1NC(=O)[C@H](C)OC(=O)[C@@H](C(C)C)NC(=O)[C@@H](C(C)C)OC(=O)[C@H](C(C)C)NC(=O)[C@H](C)OC(=O)[C@@H](C(C)C)NC(=O)[C@@H](C(C)C)OC(=O)[C@H](C(C)C)NC(=O)[C@H](C)OC(=O)[C@@H](C(C)C)NC(=O)[C@@H](C(C)C)OC1=O [valinomycin]
endogenous full length PINK1 (˜63 kDa) level after depolarization (PINK1): increased

CO/C1=C\C(C)=C\[C@@H](C)[C@@H](O)[C@@H](C)C/C(C)=C/C=C/[C@H](OC)[C@@H]([C@@H](C)[C@@H](O)[C@H](C)[C@@]2(O)C[C@@H](O)[C@H](C)[C@@H](C(C)C)O2)OC1=O [bafilomycin, reference compound]
effect on Parkin-induced mitophagy (HeLa cells): blocked

B1: L347P: patient mutant of PINK1, V5-tagged (protein, UniProt Q9BXM7 78-581, looked up, variant L347P)
Serine/threonine-protein …: AARLQRQFVVRAWGCAGPCGRAVFLAFGLGLGLIEEKQAESRRAVSACQEIQAIFTQKSKPGPDPLDTRRLQGFRLEEYLIGQSIGKGCSAAVYEATMPTLPQNLEVTKSTGLLPGRGPGTSAPGEGQERAPGAPAFPLAIKMMWNISAGSSSEAILNTMSQELVPASRVALAGEYGAVTYRKSKRGPKQLAPHPNIIRVLRAFTSSVPLLPGALVDYPDVLPSRLHPEGLGHGRTLFLVMKNYPCTLRQYLCVNTPSPRLAAMMLLQLPEGVDHLVQQGIAHRDLKSDNILVELDPDGCPWLVIADFGCCLADESIGLQLPFSSWYVDRGGNGCLMAPEVSTARPGPRAVIDYSKADAWAVGAIAYEIFGLVNPFYGQGKAHLESRSYQEAQLPALPESVPPDVRQLVRALLQREASKRPSARVAANVLHLSLWGEHILALKNLKLDKMVGWLLQQSAATLLANRLTEKCCVETKMKMLFLANLECETLCQAALLLCSWRAAL
modifications: V5 tag
notes: patient mutant of PINK1, V5-tagged
reconstitution of YFP-Parkin recruitment [1]: failed to reconstitute

B2: H271Q: patient mutant of PINK1, V5-tagged (protein, UniProt Q9BXM7 78-581, looked up, variant H271Q)
Serine/threonine-protein …: AARLQRQFVVRAWGCAGPCGRAVFLAFGLGLGLIEEKQAESRRAVSACQEIQAIFTQKSKPGPDPLDTRRLQGFRLEEYLIGQSIGKGCSAAVYEATMPTLPQNLEVTKSTGLLPGRGPGTSAPGEGQERAPGAPAFPLAIKMMWNISAGSSSEAILNTMSQELVPASRVALAGEYGAVTYRKSKRGPKQLAPQPNIIRVLRAFTSSVPLLPGALVDYPDVLPSRLHPEGLGHGRTLFLVMKNYPCTLRQYLCVNTPSPRLAAMMLLQLLEGVDHLVQQGIAHRDLKSDNILVELDPDGCPWLVIADFGCCLADESIGLQLPFSSWYVDRGGNGCLMAPEVSTARPGPRAVIDYSKADAWAVGAIAYEIFGLVNPFYGQGKAHLESRSYQEAQLPALPESVPPDVRQLVRALLQREASKRPSARVAANVLHLSLWGEHILALKNLKLDKMVGWLLQQSAATLLANRLTEKCCVETKMKMLFLANLECETLCQAALLLCSWRAAL
modifications: V5 tag
notes: as for B1
reconstitution of YFP-Parkin recruitment [1]: failed to reconstitute

B3: G411S: PINK1 polymorphism, V5-tagged (protein, UniProt Q9BXM7 78-581, looked up, variant G411S)
Serine/threonine-protein …: AARLQRQFVVRAWGCAGPCGRAVFLAFGLGLGLIEEKQAESRRAVSACQEIQAIFTQKSKPGPDPLDTRRLQGFRLEEYLIGQSIGKGCSAAVYEATMPTLPQNLEVTKSTGLLPGRGPGTSAPGEGQERAPGAPAFPLAIKMMWNISAGSSSEAILNTMSQELVPASRVALAGEYGAVTYRKSKRGPKQLAPHPNIIRVLRAFTSSVPLLPGALVDYPDVLPSRLHPEGLGHGRTLFLVMKNYPCTLRQYLCVNTPSPRLAAMMLLQLLEGVDHLVQQGIAHRDLKSDNILVELDPDGCPWLVIADFGCCLADESIGLQLPFSSWYVDRGGNSCLMAPEVSTARPGPRAVIDYSKADAWAVGAIAYEIFGLVNPFYGQGKAHLESRSYQEAQLPALPESVPPDVRQLVRALLQREASKRPSARVAANVLHLSLWGEHILALKNLKLDKMVGWLLQQSAATLLANRLTEKCCVETKMKMLFLANLECETLCQAALLLCSWRAAL
modifications: V5 tag
notes: PINK1 polymorphism, V5-tagged
YFP-Parkin recruited to mitochondria, % of cells ([1]; PINK1−/− primary MEFs expressing the PINK1 construct): 74.2±5.4%

B4: A168P: patient mutant of PINK1, V5-tagged (protein, UniProt Q9BXM7 78-581, looked up, variant A168P)
Serine/threonine-protein …: AARLQRQFVVRAWGCAGPCGRAVFLAFGLGLGLIEEKQAESRRAVSACQEIQAIFTQKSKPGPDPLDTRRLQGFRLEEYLIGQSIGKGCSPAVYEATMPTLPQNLEVTKSTGLLPGRGPGTSAPGEGQERAPGAPAFPLAIKMMWNISAGSSSEAILNTMSQELVPASRVALAGEYGAVTYRKSKRGPKQLAPHPNIIRVLRAFTSSVPLLPGALVDYPDVLPSRLHPEGLGHGRTLFLVMKNYPCTLRQYLCVNTPSPRLAAMMLLQLLEGVDHLVQQGIAHRDLKSDNILVELDPDGCPWLVIADFGCCLADESIGLQLPFSSWYVDRGGNGCLMAPEVSTARPGPRAVIDYSKADAWAVGAIAYEIFGLVNPFYGQGKAHLESRSYQEAQLPALPESVPPDVRQLVRALLQREASKRPSARVAANVLHLSLWGEHILALKNLKLDKMVGWLLQQSAATLLANRLTEKCCVETKMKMLFLANLECETLCQAALLLCSWRAAL
modifications: V5 tag
notes: as for B1
reconstitution of YFP-Parkin recruitment [1]: failed to reconstitute
